# From US20220249653A1
# Molecular target: CD40L (human) (UniProt P29965)
# Assay: cell-based or functional assay
# UniProt P29965, sequence (P29965 whole entry): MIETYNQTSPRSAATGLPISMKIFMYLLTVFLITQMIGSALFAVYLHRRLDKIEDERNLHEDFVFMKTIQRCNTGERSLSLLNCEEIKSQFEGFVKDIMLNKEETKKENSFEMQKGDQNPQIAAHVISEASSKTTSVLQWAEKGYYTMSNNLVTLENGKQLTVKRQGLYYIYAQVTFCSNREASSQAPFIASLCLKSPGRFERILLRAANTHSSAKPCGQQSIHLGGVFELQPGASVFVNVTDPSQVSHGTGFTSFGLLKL
substance,measurement,value
CD40L blocking antibody (clone MK13A4; Enzo Life Sciences Cat #ALX-805-037-C100),abrogation of intracellular p24 expression,90.8%
same,inhibition of CD4 downregulation (flow cytometry of MDC1/SEB-activated CD4+ T cells),87.7%
same,reduction in HIV-1 RNA content in the day 7 co-culture supernatants measured by qRT-PCR,94.1%
